According to patent publication US20180155451A1 (published 2018):

B1: GpH7-B3 variant E269_04F/GpL16-k0 (antibody, human IgG1, kappa)
heavy: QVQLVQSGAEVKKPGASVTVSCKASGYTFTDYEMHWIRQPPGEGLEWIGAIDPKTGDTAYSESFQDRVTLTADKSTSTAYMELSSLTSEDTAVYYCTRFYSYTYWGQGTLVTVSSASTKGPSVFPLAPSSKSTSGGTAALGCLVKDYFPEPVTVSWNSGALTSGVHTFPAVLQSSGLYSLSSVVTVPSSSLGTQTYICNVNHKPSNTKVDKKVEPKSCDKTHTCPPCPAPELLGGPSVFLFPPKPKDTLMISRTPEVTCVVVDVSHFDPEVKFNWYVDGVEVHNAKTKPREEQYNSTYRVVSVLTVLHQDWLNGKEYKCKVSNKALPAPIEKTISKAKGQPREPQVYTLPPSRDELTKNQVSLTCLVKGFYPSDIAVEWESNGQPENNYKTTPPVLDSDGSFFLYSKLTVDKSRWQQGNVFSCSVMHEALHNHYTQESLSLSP
light: DIVMTQSPLSLPVTPGEPASISCQASESLVHSNRNTYLHWYLQKPGQSPQLLIYKVSNRFSGVPDRFSGSGSGTDFTLKISRVEAEDVGVYYCSQNTHVPPTFGQGTKVEIERTVAAPSVFIFPPSDEQLKSGTASVVCLLNNFYPREAKVQWKVDNALQSGNSQESVTEQDSKDSTYSLSSTLTLSKADYEKHKVYACEVTHQGLSSPVTKSFNRGEC
notes: homodimerized; also called Ho Ab E269_04F
B2: GpH7-B3 variant E269_05P/GpL16-k0 (antibody, human IgG1, kappa)
heavy: not shown
light: B1 light
notes: homodimerized; also called Ho Ab E269_05P
B3: GpH7-B3 variant E269_03V/GpL16-k0 (antibody, human IgG1, kappa)
heavy: not shown
light: B1 light
notes: homodimerized; also called Ho Ab E269_03V
B4: GpH7-B3 variant E269_06M/GpL16-k0 (antibody, human IgG1, kappa)
heavy: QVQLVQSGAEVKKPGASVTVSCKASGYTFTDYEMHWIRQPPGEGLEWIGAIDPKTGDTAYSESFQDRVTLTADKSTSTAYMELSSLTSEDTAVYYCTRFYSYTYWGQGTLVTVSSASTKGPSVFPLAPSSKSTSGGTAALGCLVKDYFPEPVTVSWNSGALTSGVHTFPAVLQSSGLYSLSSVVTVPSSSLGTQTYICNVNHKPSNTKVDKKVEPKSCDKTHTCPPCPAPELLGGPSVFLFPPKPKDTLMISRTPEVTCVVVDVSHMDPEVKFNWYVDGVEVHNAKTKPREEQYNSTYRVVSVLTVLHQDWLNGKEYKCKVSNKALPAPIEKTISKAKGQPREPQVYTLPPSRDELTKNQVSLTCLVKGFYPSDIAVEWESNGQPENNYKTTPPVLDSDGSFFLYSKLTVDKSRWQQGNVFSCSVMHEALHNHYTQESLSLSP
light: B1 light
notes: homodimerized; also called Ho Ab E269_06M
B5: GpH7-B3 variant E269_07I/GpL16-k0 (antibody, human IgG1, kappa)
heavy: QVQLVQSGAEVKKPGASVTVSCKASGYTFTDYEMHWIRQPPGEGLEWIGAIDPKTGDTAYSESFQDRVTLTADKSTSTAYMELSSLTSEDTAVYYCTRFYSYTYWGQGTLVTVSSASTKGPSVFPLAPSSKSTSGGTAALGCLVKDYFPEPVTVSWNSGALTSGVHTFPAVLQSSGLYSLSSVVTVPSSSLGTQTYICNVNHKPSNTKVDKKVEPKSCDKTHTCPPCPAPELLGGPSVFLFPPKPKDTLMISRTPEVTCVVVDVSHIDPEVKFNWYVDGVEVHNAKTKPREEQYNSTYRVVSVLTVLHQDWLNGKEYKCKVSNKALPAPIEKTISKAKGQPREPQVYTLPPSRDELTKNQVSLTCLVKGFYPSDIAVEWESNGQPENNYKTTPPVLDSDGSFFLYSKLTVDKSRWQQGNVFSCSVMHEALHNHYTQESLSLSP
light: B1 light
notes: homodimerized; also called Ho Ab E269_07I
B6: GpH7-A5/GpH7-B3 variant S239_18N/GpL16-k0 (antibody, human IgG1, kappa)
heavy 1: not shown
heavy 2: not shown
light: B1 light
notes: heterodimerized; mutation in one H chain; also called He Ab
B7: GpH7-B3 variant E269_16H/GpL16-k0 (antibody, human IgG1, kappa)
heavy: not shown
light: B1 light
notes: homodimerized; also called Ho Ab E269_16H
B8: GpH7-A5/GpH7-B3 variant S337_19Q/GpL16-k0 (antibody, human IgG1, kappa)
heavy 1: not shown
heavy 2: not shown
light: B1 light
notes: as for B6
B9: GpH7-B3 variant A330_11K/GpL16-k0 (antibody, human IgG1, kappa)
heavy: not shown
light: B1 light
notes: homodimerized; also called Ho Ab A330_11K
B10: GpH7-B3 variant E269_09D/GpL16-k0 (antibody, human IgG1, kappa)
heavy: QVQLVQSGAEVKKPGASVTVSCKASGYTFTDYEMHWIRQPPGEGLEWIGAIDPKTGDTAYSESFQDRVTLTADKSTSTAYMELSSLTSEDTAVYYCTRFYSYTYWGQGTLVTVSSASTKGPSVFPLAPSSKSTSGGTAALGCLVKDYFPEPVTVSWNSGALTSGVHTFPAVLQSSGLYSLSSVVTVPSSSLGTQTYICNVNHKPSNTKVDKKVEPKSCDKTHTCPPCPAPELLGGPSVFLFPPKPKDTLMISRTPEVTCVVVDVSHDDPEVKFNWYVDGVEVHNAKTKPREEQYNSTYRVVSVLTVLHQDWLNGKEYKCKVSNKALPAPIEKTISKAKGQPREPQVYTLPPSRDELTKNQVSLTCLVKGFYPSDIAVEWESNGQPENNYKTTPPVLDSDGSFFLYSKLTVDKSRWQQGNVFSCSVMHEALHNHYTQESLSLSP
light: B1 light
notes: homodimerized; also called Ho Ab E269_09D
B11: GpH7-A5/GpH7-B3 variant S337_07I/GpL16-k0 (antibody, human IgG1, kappa)
heavy 1: not shown
heavy 2: not shown
light: B1 light
notes: as for B6
B12: GpH7-A5/GpH7-B3 variant S337_20W/GpL16-k0 (antibody, human IgG1, kappa)
heavy 1: not shown
heavy 2: not shown
light: B1 light
notes: as for B6
B13: GpH7-B3 variant E269_08L/GpL16-k0 (antibody, human IgG1, kappa)
heavy: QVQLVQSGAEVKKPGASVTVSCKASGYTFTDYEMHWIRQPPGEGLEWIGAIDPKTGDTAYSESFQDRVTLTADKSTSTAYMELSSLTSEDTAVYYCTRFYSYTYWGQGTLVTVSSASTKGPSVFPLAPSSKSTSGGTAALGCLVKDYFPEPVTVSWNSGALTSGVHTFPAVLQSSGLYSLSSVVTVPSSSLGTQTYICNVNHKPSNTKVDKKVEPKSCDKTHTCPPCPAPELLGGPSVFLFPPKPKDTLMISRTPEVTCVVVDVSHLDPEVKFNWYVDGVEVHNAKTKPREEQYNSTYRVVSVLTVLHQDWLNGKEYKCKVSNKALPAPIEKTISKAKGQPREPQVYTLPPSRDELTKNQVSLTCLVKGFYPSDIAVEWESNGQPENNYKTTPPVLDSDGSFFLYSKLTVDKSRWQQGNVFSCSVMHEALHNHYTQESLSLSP
light: B1 light
notes: homodimerized; also called Ho Ab E269_08L
B14: GpH7-A5/GpH7-B3 variant T335_07I/GpL16-k0 (antibody, human IgG1, kappa)
heavy 1: not shown
heavy 2: not shown
light: B1 light
notes: as for B6
B15: GpH7-A5/GpH7-B3 variant S337_18N/GpL16-k0 (antibody, human IgG1, kappa)
heavy 1: not shown
heavy 2: not shown
light: B1 light
notes: as for B6
B16: GpH7-B3 variant A330_16H/GpL16-k0 (antibody, human IgG1, kappa)
heavy: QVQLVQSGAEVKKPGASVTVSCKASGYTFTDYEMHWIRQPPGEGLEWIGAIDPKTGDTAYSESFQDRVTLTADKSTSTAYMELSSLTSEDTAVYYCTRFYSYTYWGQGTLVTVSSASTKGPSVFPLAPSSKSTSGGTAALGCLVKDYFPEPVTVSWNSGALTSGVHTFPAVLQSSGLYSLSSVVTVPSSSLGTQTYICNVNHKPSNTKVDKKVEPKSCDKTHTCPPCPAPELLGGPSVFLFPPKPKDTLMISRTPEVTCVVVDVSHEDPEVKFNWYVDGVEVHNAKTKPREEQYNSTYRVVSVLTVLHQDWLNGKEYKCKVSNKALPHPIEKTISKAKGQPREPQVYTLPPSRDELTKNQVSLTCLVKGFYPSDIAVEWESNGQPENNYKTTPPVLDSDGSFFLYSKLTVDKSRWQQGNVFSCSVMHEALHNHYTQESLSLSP
light: B1 light
notes: homodimerized; also called Ho Ab A330_16H
B17: GpH7-A5/GpH7-B3 variant S267_09D/GpL16-k0 (antibody, human IgG1, kappa)
heavy 1: not shown
heavy 2: not shown
light: B1 light
notes: as for B6
B18: GpH7-B3 variant E333_04F/GpL16-k0 (antibody, human IgG1, kappa)
heavy: not shown
light: B1 light
notes: homodimerized; also called Ho Ab E333_04F
B19: GpH7-B3 variant E269_13S/GpL16-k0 (antibody, human IgG1, kappa)
heavy: not shown
light: B1 light
notes: homodimerized; also called Ho Ab E269_13S
B20: GpH7-B3 variant E269_18N/GpL16-k0 (antibody, human IgG1, kappa)
heavy: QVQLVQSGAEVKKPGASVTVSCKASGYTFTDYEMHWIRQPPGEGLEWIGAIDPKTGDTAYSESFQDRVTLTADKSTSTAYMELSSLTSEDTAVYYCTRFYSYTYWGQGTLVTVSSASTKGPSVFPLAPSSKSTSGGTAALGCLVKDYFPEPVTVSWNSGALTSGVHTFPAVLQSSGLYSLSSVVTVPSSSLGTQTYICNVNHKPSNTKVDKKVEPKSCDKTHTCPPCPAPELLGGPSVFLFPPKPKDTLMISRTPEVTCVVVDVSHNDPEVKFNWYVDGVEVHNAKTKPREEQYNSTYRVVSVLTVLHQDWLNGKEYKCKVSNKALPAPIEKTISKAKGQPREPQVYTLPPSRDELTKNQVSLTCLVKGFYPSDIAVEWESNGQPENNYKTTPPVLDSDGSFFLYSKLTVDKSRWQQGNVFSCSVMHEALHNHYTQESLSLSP
light: B1 light
notes: homodimerized; also called Ho Ab E269_18N
B21: GpH7-B3 variant E333_07I/GpL16-k0 (antibody, human IgG1, kappa)
heavy: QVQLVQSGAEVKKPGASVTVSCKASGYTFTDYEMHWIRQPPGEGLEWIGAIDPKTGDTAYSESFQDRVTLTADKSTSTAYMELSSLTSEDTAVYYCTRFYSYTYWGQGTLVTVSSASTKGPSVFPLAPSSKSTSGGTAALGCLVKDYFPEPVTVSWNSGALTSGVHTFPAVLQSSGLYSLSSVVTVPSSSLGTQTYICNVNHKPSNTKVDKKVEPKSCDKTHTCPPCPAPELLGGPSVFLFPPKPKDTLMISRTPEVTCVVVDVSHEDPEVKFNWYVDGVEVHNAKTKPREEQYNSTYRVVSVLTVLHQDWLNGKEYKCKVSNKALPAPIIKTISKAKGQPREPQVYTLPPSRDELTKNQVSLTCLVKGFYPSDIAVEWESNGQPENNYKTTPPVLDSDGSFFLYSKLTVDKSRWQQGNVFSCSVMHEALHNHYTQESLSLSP
light: B1 light
notes: homodimerized; also called Ho Ab E333_07I
B22: GpH7-B3 variant E333_02A/GpL16-k0 (antibody, human IgG1, kappa)
heavy: not shown
light: B1 light
notes: homodimerized; also called Ho Ab E333_02A
B23: GpH7-B3 variant E333_01G/GpL16-k0 (antibody, human IgG1, kappa)
heavy: not shown
light: B1 light
notes: homodimerized; also called Ho Ab E333_01G
B24: GpH7-B3 variant E333_03V/GpL16-k0 (antibody, human IgG1, kappa)
heavy: not shown
light: B1 light
notes: homodimerized; also called Ho Ab E333_03V
B25: GpH7-A5/GpH7-B3 variant T335_02A/GpL16-k0 (antibody, human IgG1, kappa)
heavy 1: not shown
heavy 2: not shown
light: B1 light
notes: as for B6
B26: GpH7-B3 variant A327_06M/GpL16-k0 (antibody, human IgG1, kappa)
heavy: not shown
light: B1 light
notes: homodimerized; also called Ho Ab A327_06M
B27: GpH7-B3 variant E269_01G/GpL16-k0 (antibody, human IgG1, kappa)
heavy: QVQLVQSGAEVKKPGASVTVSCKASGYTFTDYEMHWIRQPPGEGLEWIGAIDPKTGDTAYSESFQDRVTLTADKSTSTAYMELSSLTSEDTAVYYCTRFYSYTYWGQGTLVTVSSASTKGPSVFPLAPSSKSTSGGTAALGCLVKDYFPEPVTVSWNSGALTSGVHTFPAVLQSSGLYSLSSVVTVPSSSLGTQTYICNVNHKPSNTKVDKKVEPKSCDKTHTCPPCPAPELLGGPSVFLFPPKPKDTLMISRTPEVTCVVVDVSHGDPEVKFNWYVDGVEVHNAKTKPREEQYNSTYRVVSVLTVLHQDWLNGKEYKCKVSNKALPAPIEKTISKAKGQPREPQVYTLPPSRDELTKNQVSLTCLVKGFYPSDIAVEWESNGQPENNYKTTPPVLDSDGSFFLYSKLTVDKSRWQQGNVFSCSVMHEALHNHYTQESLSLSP
light: B1 light
notes: homodimerized; also called Ho Ab E269_01G
B28: GpH7-A5/GpH7-B3 variant S337_06M/GpL16-k0 (antibody, human IgG1, kappa)
heavy 1: not shown
heavy 2: not shown
light: B1 light
notes: as for B6
B29: GpH7-B3 variant A327_10E/GpL16-k0 (antibody, human IgG1, kappa)
heavy: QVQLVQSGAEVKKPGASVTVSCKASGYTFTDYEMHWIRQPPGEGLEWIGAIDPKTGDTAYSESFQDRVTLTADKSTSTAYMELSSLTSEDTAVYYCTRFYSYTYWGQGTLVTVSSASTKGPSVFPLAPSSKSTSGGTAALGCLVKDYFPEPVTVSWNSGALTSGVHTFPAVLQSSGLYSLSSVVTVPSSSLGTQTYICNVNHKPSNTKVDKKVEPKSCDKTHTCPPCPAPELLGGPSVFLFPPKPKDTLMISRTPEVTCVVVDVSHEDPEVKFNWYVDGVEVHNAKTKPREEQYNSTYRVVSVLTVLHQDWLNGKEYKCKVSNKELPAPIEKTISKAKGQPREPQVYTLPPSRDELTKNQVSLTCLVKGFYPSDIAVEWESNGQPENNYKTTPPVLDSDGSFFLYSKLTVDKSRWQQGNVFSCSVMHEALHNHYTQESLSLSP
light: B1 light
notes: homodimerized; also called Ho Ab A327_10E

Legend:
FcγRIa = target: T1, FcγRIa (human, UniProt P12314 16-292); assay: SPR; vs GpH7-B3/GpL16-k0=100
T1 construct: extracellular domain; also called FcgRI; CD64

[1] = target: T2, FcγRIIa R (extracellular domain with a His tag at the C terminus) (human, UniProt P12318 34-217); assay: SPR Biacore, relative binding
T2 construct: extracellular domain; expressed in FreeStyle293 cells; also called FcgRIIa R; FcγRIIa type R; not shown: His tag at the C terminus
T2 sequence (looked up): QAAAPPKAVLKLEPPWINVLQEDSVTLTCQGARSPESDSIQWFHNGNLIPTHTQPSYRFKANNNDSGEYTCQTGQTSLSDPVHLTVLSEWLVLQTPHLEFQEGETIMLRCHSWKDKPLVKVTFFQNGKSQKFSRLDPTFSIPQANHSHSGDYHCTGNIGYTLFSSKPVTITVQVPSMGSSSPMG

T1 sequence (P12314 16-292): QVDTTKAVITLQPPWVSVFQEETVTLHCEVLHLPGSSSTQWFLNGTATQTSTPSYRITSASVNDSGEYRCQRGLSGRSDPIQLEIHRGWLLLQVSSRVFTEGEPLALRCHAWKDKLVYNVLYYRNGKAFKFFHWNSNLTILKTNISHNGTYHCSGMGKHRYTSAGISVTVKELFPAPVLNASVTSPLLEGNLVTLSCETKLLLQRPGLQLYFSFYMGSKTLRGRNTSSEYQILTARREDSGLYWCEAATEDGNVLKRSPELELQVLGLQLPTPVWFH

Row | Binder | Ho/Con_1a (FcγRIa) | He/Con_2aR [1]
1 | B1 | 102 % of control | –
2 | B2 | 95.7 % of control | –
3 | B3 | 95.4 % of control | –
4 | B4 | 101 % of control | –
5 | B5 | 97.1 % of control | –
6 | B6 | – | 111 % of GpH7-A5/GpH7-B3/GpL16-k0 (=100)
7 | B7 | 98.4 % of control | –
8 | B8 | – | 106 % of GpH7-A5/GpH7-B3/GpL16-k0 (=100)
9 | B9 | 94.1 % of control | –
10 | B10 | 106 % of control | –
11 | B11 | – | 109 % of GpH7-A5/GpH7-B3/GpL16-k0 (=100)
12 | B12 | – | 110 % of GpH7-A5/GpH7-B3/GpL16-k0 (=100)
13 | B13 | 101 % of control | –
14 | B14 | – | 109 % of GpH7-A5/GpH7-B3/GpL16-k0 (=100)
15 | B15 | – | 107 % of GpH7-A5/GpH7-B3/GpL16-k0 (=100)
16 | B16 | 104 % of control | –
17 | B17 | – | 173 % of GpH7-A5/GpH7-B3/GpL16-k0 (=100)
18 | B18 | 98.4 % of control | –
19 | B19 | 95.9 % of control | –
20 | B20 | 92.7 % of control | –
21 | B21 | 99.9 % of control | –
22 | B22 | 96.2 % of control | –
23 | B23 | 100 % of control | –
24 | B24 | 98.4 % of control | –
25 | B25 | – | 102 % of GpH7-A5/GpH7-B3/GpL16-k0 (=100)
26 | B26 | 93.1 % of control | –
27 | B27 | 97.4 % of control | –
28 | B28 | – | 105 % of GpH7-A5/GpH7-B3/GpL16-k0 (=100)
29 | B29 | 98.8 % of control | –
